Series [1] concerns the molecule itself. Description: cell-based or functional assay.
Series [2] concerns the molecule itself. As to the kind of experiment: SEC; native size exclusion chromatography, Superdex 200 Increase 10/300 GL, 20 mM sodium phosphate, 150 mM sodium chloride, pH 7.5; 0.5 mL fractions read by anti-His Western blot (densitometry) and DTNB activity; self-association: monomers, dimers, tetramers. Background: SEC sorts molecules by how far they enter the pores of the column.

These results are taken from PMC6025699, “Acetylation Regulates Thioredoxin Reductase Oligomerization and Activity” (Antioxidants & Redox Signaling, 2018).

Several values for one entry are separate records, joined by “and”; a condition that tells them apart may be missing. Identical values can stand only once.

B1: acetylated thioredoxin reductase 1, Nɛ-acetyl-lysine at K141 (acTrxR1^K141) (enzyme, human, UniProt Q16881-4 1-551, looked up)
chain: MSCEDGRALEGTLSELAAETDLPVVFVKQRKIGGHGPTLKAYQEGRLQKLLKMNGPEDLPKSYDYDLIIIGGGSGGLAAAKEAAQYGKKVMVLDFVTPTPLGTRWGLGGTCVNVGCIPKKLMHQAALLGQALQDSRNYGWKVEETVKHDWDRMIEAVQNHIGSLNWGYRVALREKKVVYENAYGQFIGPHRIKATNNKGKEKIYSAERFLIATGERPRYLGIPGDKEYCISSDDLFSLPYCPGKTLVVGASYVALECAGFLAGIGLDVTVMVRSILLRGFDQDMANKIGEHMEEHGIKFIRQFVPIKVEQIEAGTPGRLRVVAQSTNSEEIIEGEYNTVMLAIGRDACTRKIGLETVGVKINEKTGKIPVTDEEQTNVPYIYAIGDILEDKVELTPVAIQAGRLLAQRLYAGSTVKCDYENVPTTVFTPLEYGACGLSEEKAVEKFGEENIEVYHSYFWPLEWTIPSRDNNKCYAKIICNTKDNERVVGFHVLGPNAGEVTQGFAAALKCGLTKKQLDSTIGIHPVCAEVFTTLSVTKRSGASILQAGCUG
modifications: Nɛ-acetyl-lysine at 141; selenocysteine (Sec) at 550
notes: Same construct as m1 but for the acetyl-lysine at 141; source: E. coli BL21 DE3 or E. coli ΔRF1 (C321.ΔA.exp) with acKRS/tRNA^Pyl, purified (Ni-NTA, size-exclusion chromatography)
As for B1, in series [1], the “9,10-phenanthrequinone assay, relative activity (x-fold, WT TrxR1 = 1), 100 nM TrxR1” value amounted to 1.2 x-fold; the “DTNB assay, relative activity (x-fold, WT TrxR1 = 1), 50 nM TrxR1” value turned out to be 1.8 x-fold; the “insulin linked Trx1 assay, relative activity (x-fold, WT TrxR1 = 1), 200 nM TrxR1” value amounted to 1.8 x-fold. Moreover, in series [2], the stoichiometry N (in general, the number of molecules, sites or subunits per partner or assembly) is 2 and 4.

B2: acetylated thioredoxin reductase 1, Nɛ-acetyl-lysine at K307 (acTrxR1^K307) (enzyme, human, UniProt Q16881-4 1-551, looked up)
chain: MSCEDGRALEGTLSELAAETDLPVVFVKQRKIGGHGPTLKAYQEGRLQKLLKMNGPEDLPKSYDYDLIIIGGGSGGLAAAKEAAQYGKKVMVLDFVTPTPLGTRWGLGGTCVNVGCIPKKLMHQAALLGQALQDSRNYGWKVEETVKHDWDRMIEAVQNHIGSLNWGYRVALREKKVVYENAYGQFIGPHRIKATNNKGKEKIYSAERFLIATGERPRYLGIPGDKEYCISSDDLFSLPYCPGKTLVVGASYVALECAGFLAGIGLDVTVMVRSILLRGFDQDMANKIGEHMEEHGIKFIRQFVPIKVEQIEAGTPGRLRVVAQSTNSEEIIEGEYNTVMLAIGRDACTRKIGLETVGVKINEKTGKIPVTDEEQTNVPYIYAIGDILEDKVELTPVAIQAGRLLAQRLYAGSTVKCDYENVPTTVFTPLEYGACGLSEEKAVEKFGEENIEVYHSYFWPLEWTIPSRDNNKCYAKIICNTKDNERVVGFHVLGPNAGEVTQGFAAALKCGLTKKQLDSTIGIHPVCAEVFTTLSVTKRSGASILQAGCUG
modifications: Nɛ-acetyl-lysine at 307; selenocysteine (Sec) at 550
notes: Same construct as m1 but for the acetyl-lysine at 307; source: E. coli BL21 DE3 or E. coli ΔRF1 (C321.ΔA.exp) with acKRS/tRNA^Pyl, purified (Ni-NTA, size-exclusion chromatography)
As for B2, in series [1], the “9,10-phenanthrequinone assay, relative activity (x-fold, WT TrxR1 = 1), 100 nM TrxR1” value is 1.3 x-fold; the “DTNB assay, relative activity (x-fold, WT TrxR1 = 1), 50 nM TrxR1” value turned out to be 2.7 x-fold; the “insulin linked Trx1 assay, relative activity (x-fold, WT TrxR1 = 1), 200 nM TrxR1” value is 2 x-fold. For the same protein, in series [2], the “stoichiometry N” value was 2 and 4.

B3: acetylated thioredoxin reductase 1, Nɛ-acetyl-lysine at K200 (acTrxR1^K200) (enzyme, human, UniProt Q16881-4 1-551, looked up)
chain: MSCEDGRALEGTLSELAAETDLPVVFVKQRKIGGHGPTLKAYQEGRLQKLLKMNGPEDLPKSYDYDLIIIGGGSGGLAAAKEAAQYGKKVMVLDFVTPTPLGTRWGLGGTCVNVGCIPKKLMHQAALLGQALQDSRNYGWKVEETVKHDWDRMIEAVQNHIGSLNWGYRVALREKKVVYENAYGQFIGPHRIKATNNKGKEKIYSAERFLIATGERPRYLGIPGDKEYCISSDDLFSLPYCPGKTLVVGASYVALECAGFLAGIGLDVTVMVRSILLRGFDQDMANKIGEHMEEHGIKFIRQFVPIKVEQIEAGTPGRLRVVAQSTNSEEIIEGEYNTVMLAIGRDACTRKIGLETVGVKINEKTGKIPVTDEEQTNVPYIYAIGDILEDKVELTPVAIQAGRLLAQRLYAGSTVKCDYENVPTTVFTPLEYGACGLSEEKAVEKFGEENIEVYHSYFWPLEWTIPSRDNNKCYAKIICNTKDNERVVGFHVLGPNAGEVTQGFAAALKCGLTKKQLDSTIGIHPVCAEVFTTLSVTKRSGASILQAGCUG
modifications: Nɛ-acetyl-lysine at 200; selenocysteine (Sec) at 550
notes: Same construct as m1 but for the acetyl-lysine at 200; source: E. coli BL21 DE3 or E. coli ΔRF1 (C321.ΔA.exp) with acKRS/tRNA^Pyl, purified (Ni-NTA, size-exclusion chromatography)
Consider B3, for which, in series [1], the “9,10-phenanthrequinone assay, relative activity (x-fold, WT TrxR1 = 1), 100 nM TrxR1” value came out at 1.4 x-fold; the “DTNB assay, relative activity (x-fold, WT TrxR1 = 1), 50 nM TrxR1” value was 2.1 x-fold; the “insulin linked Trx1 assay, relative activity (x-fold, WT TrxR1 = 1), 200 nM TrxR1” value was determined as 1.9 x-fold. Besides, the “stoichiometry N” value in series [2] was 2 and 4.

B4: wild-type thioredoxin reductase 1 (human TrxR1, isoform 4, Sec550) (enzyme, UniProt Q16881-4 1-551, looked up)
chain: MSCEDGRALEGTLSELAAETDLPVVFVKQRKIGGHGPTLKAYQEGRLQKLLKMNGPEDLPKSYDYDLIIIGGGSGGLAAAKEAAQYGKKVMVLDFVTPTPLGTRWGLGGTCVNVGCIPKKLMHQAALLGQALQDSRNYGWKVEETVKHDWDRMIEAVQNHIGSLNWGYRVALREKKVVYENAYGQFIGPHRIKATNNKGKEKIYSAERFLIATGERPRYLGIPGDKEYCISSDDLFSLPYCPGKTLVVGASYVALECAGFLAGIGLDVTVMVRSILLRGFDQDMANKIGEHMEEHGIKFIRQFVPIKVEQIEAGTPGRLRVVAQSTNSEEIIEGEYNTVMLAIGRDACTRKIGLETVGVKINEKTGKIPVTDEEQTNVPYIYAIGDILEDKVELTPVAIQAGRLLAQRLYAGSTVKCDYENVPTTVFTPLEYGACGLSEEKAVEKFGEENIEVYHSYFWPLEWTIPSRDNNKCYAKIICNTKDNERVVGFHVLGPNAGEVTQGFAAALKCGLTKKQLDSTIGIHPVCAEVFTTLSVTKRSGASILQAGCUG
modifications: selenocysteine (Sec) at 550
notes: amplified with a forward primer at the ATG (NdeI) and a reverse primer behind the fdhF SecIS in the 3' UTR; In solution a mixture of monomers, dimers, tetramers and covalently linked dimers; also called WT TrxR1; His6-TrxR1; source: E. coli BL21 DE3 or E. coli ΔRF1 (C321.ΔA.exp), purified (Ni-NTA, size-exclusion chromatography)
With B4, the “stoichiometry N” value in series [2] is 2 and 4.
